Assay: label from the status in PepcDB records

Row | Sequence | protein production
1 | MATKHEQILTYIDSLPVGEKISVRRIAKEMKVSEGTAYRAIKEAENKGFVSTIERVGTIRIEQKKKENIEKLTYAEVVNVIDGQVLGGRAGLHKTLNKFVIGAMELDAMMRYTAAGNLLIVGNRINAHRQALEAGAAVLVTGGFNTDDSIVQLADELELPILSTSYDTFTVAAMINRAIYDQLIKKEIVLVEDILTPADRTVYLSPKDKLEKWYEKNFETGHGRFPVVDDQMKIHGILTSKDIAGHDRNASIEKVMTKNPVTVIGKTSVASAAQMMVWEGIEVLPVTDGHQKLIGMISRQDVLKALQMIQKQPQVGEKLDDIVSRGFKDEGDDKEDQTVYEYEVTPQMTNQLGTISYGVFTTILTQAANRFLRSKKRGELVIESITIFFLKPVQMESVIEVKPRILEAGRKFGKMEVEVHSQGHIVSKAMLMVQLMERS | failed
2 | MEIHSERKKRLSLSLLFKIIKDTVWGFIDDSVMRLSASLAYATLFSIIPFLSLLVTVGVFFHMDLANQLYVQLQPIVGPEVTEALRSIIENAENTDSSRSAAFVSLGISILGATTIFAEIQSSLNSIWGIKAVPKKSWLKFIKNRILSFSIILVFAFILLITFTITNIIGELSQKFIFKYPEVADSLVKVVGIIINMSVTTIIFTLIFKILPDAKIKSKDVCIGAVVTTILLLIGQWGISFYIGIANVGTVYGAAAFMVVFVTWIYYSSIIIYTGAEFTKAWANEMGGKIFPDEYAVATKTIEIHEDKPIE | failed
3 | MALPPYDPNFTLAFSYGRRDNVFENDPEHDESASAAIVAVELISSARLALKLDSVRTEYSAQYLVDKAGSRNLRRRRKLTVKDCLNFALKKGGIPRAEDWPPLGSESKTPSSYEPALVSMKGEVIEPKDMDEVPELLVHQSAVGAKLHVFTPHIELQQDVSAIAYARYVGLRDGIVVGTEKIQGKSMAIVKVWYKKKFVVVKVALSRMFYLAGVGPSVLLVDFCVPRLSID | failed
4 | MGSSHHHHHHSSGRENLYFQGGAGTSAAMRQATSPKTILEYIINFFTCGGIRRRNETQYQELIETMAETLKSTMPDRGAPLPENIILDDMDGCRVEFNLPGENNEAGQVIVRVSKGDHSETREIPLASFEKICRALLFRCEFSLPQDSVILTAQGGMNLKGAVLTGANLTS | not failed
5 | VVENYETQFVTFVESEMEQDLAHDLNHVFRVVKTAKLLSKIEGAMLEVVLPAAYLHDCFSFPKNHPNKAESSRIAADKALEFLNEIGYPNEYHDAIKHAIIAHSFSAKVQPDTLEAKVVQDADRLDALGAIGIARCIQVSTNLGVGLYDATDPFCGTREPNDRVNTVDHFYTKLFKLPEIMHTASAKVEAEKRMKFMKAYLIQLGMEIEPYS | failed
6 | MIVKEDSVEAVGAQLKVYHQQYQDKSREYDQLYEEYTRTSQELQMKRTAIEAFNETIKIFEEQGQTQEKCSKEYLERFRREGNEKEMQRILLNSERLKSRIAEIHESRTKLEQQLRAQASDNREIDKRMNSLKPDLMQLRKIRDQYLVWLTQKGARQKKINEWLGIKNETEDQYALMEDLEHHHHHH | failed
7 | STRRVSVRDKLLVKEVAELEANLPCTCKVHFPDPNKLHCFQLTVTPDEGYYQGGKFQFETEVPDAYNMVPPKVKCLTKIWHPNITETGEICLSLLREHSIDGTGWAPTRTLKDVVWGLNSLFTDLLNFDDPLNIEAAEHHLRDKEDFRNKVDDYIKRYAR | not failed
8 | MNIEDDENKEKKETCLSYIKKINMSEIINDEAIGKRAEYLWNLALSAVYINVKLSMKYITLIKKITKNNLLFDNICCHYCNLIYIPFYNCKITHSPNQGKATYTCLLCKRKKKINLQHLSKHKNIYPLKHSDKHKPSTSNLSNVNFFLINEIDNYEIKKNNVPLNKDDTSNTENQLITKQENKNEDTLKDVSCADMQKEEHIINQDNIINQDNIINQDNIINQDNIINQDNIINQDNIINQDNIINQDNIINQDNIINQDNIINKNDMYQNLSYLFRIDYGINKDDTQKGNEIYDKSIVNESEKCKSVHIENNKNDDNKNMNSESKNIKNERKRKSQNNNIAQNKNQGFPNVNMNDGFLNFNKSKKKKGKSILDIL | failed
9 | MPAQTNLKPVLTAAQVNVLMETVYPQLNEQFKYYEAIDVFPGGCTVRLNAGERHLRPGGTVSGPSLFTLADIGGYVCVLSHAGPDALSVTVNLDINFVRKAEAGPIDGHCRILKLGKSLMVFAIDIVAGPEGQTIAHATGTYSIPPKRIGDVVK | failed
10 | MARGELPRASISDTIPMTMASIDAGSVRFTARADKRHLNPLGGVHGGFAATVLDSVTGCAIHSILEAGVGYGTVDLSVKRVKAVPEDTPLVAEGRVLHVPCAIGSQRADLMLAPPRLGRDRRCPAGHAPAGAARAACAPQGRLTPMRRPLNAAPAARRCGRTGTDRSRAPGRACAAPWSSAC | failed
11 | MLEHLIKISRRNWSSLKVIILAGGRGKRITLFKPFLVVCGKPLISWAFDAVNKLSDKVYLGINQSHPLFTIFKHSIFKIFPTPDISYENDVKYVVESLGPPILVLPVDIAFINNNIINNLIERCAVDMCTLKSYGSYLGVTYWTGLNFSNYTDIEVKEKLYNINTWEDYIKANKECNILLEHHHHHH | not failed
12 | MSRCASRFRISSKLSATFRTTHKSHQARNPAGFFVIMGYHKDATKRMIMVYTKVYPMRFGYIALGTPPIQSLDIRKMPKLTDMQIRAWIKSGERFEGRADGNGLYLRYREADKTPTWRFRYKLAGKSRAMLIGSYSELSLSKARETAKELSARVALGYDVAGEKQKRKTEALAKMEAEKNAMRVSELAAEYFERQILPRWKHPDILRRRIDKDINPCIGSMKVEDVKPRHIDDMLKGIVDRGAPTIATDVLRWTRRIFDYGIKRHALEINPCSAFEVADAGGKEAARDRWLTRDELIQLFKAMRTAKGFSRQNEITFKLLLALCVRKMELCAARWEEFDLDGAVWHLPEERSKNGDPIDIPLPSPAVEWLRELHTFSCNSAWVLPARKMQNRMIPHIQESTLPVALAKVRAEMPDVPNFTIHDFRRTARTHLAALGVDPVVAERCLNHRIKGVEGIYNRHQYFDERKAALAQWADLLVALESGKDYNVTPLRRAN | failed
13 | MYFLKKIVNLFSSKIESEDNNVKKDDLTQPRKQSPEARKRRNRRIIFWLIILLIIGTIIGVIIYFSVRKEYDNVIVKSAQTEVVNNKKVLYLNTIRPNSTQITRYTIDEDQLLTARVNILNNTNFQIISNASSLGLSRISFNIVREGVEKFKLGETNIYAPISGNTNNQWNWLTSIITQNAGIPSSGFNPQVIISPLISIIFFIIFLYIILRVSKAQSDSLLGTNKANAKLTKSGVRFSDVAGIAEVKEELIEIVDFLKEPKKYVAAGARIPKGVMLYGPPGTGKTLIAKAVAGEANVPFFQTTGSSFEDTFVGVGARRVRELFEKARKSAPAIIFIDEIDSVAKKRGNSLTAVQDQTINQLLSELDGFDTSSGVIVMAATNRLDTLDDAILRPGRFDRQISVNLPDILEREQILRIHSRNKNLSAKVSLEDIARRTAGFSGAQLENVLNEAALLSVRDKATSIHMNHLDEAIDRVIAGPSRPNKVISEREREQVSYHEAGHALIGLYSPGADVVQKITIVARGRAAGYTLQTPERNENILQNKTELISRVRTALGGRAAEELIYGPNEITTGAANDFYKITNIVRAMVASFGMTDVGLTQYIATEGVDNPYRNSYSEQTALAIDIEIEKIIQREYKIVKEMINEHREELELIVQTLLELETILKPQIDYIHQYKQLPPEVIANKNKREASQKQANSSVEEAKVVDDEESIKDKEKDQKSN | failed
14 | MLTKVIEQAKIDHFTKWFERADKIVIVSHVSPDGDAIGSSLGLYHFLDSQEKTVNVIVPNAFPDFLRWMPGSKDILLYDRYKDFADKLIAEADVICCLDFNALKRIDEMADAVAASPARKVMIDHHLYPEEFCKITMSYPKISSTSELIFRLICRMGYFSDISKEGAECIYTGMMTDTGGFTYNSNNREIYFIISELLSKGIDKDDIYRKVYNTYSESRLRLMGYVLSNMVVYSDYNAALISLTKEEQSKFDYIKGDSEGFVNIPLTIKNVCFSCFLREDTEKPMIKISLRSVGTFPCNQLAAEFFNGGGHLNASGGEFFGTIEEAKAVFEQALEKYKPLLTAKSLEHHHHHH | not failed
15 | MIRISIALLDHQEQLPNMFENLSEDLRKALNEAGYIKPTRVQEVVIPELMNGKSVIVQAKTGSGKTAAYVIPILERNSTALILSPTRELATQILDEIKKLGKYKQIDVSLIIGGMSYDDQRQSKIVVGTPGRLLDLWSKGKIDFSGYDFVIVDEADRMLDMGFIDDIRMILNHCNAKIAGFFSATIPDEIMTLAKEFSKDLREIVLDEYKPVEEVKQKFVKVRNDWNDKVSKLLEEINGEKILVFARTRDRARKLYYLLKGKGVNVGLLSGDMPQSVRLKNFYGFKKGKYNVLVATDLASRGIDIIDVNKVINFDIPRDVETYIHRVGRTGRMGRVGQAITFYTFREADMIKRINNLLAI | failed
16 | MTADKISPDMLRFERILAAPAATVWQYLVDPELRARWFMSGPTDLQVGGAFGLTMDHDRLSDEVVPTPDRYKPYVGHRWHERITRYEPPHLLAFTWEDGKAGEVTFALTEIDSGTTRLVLTHTGLRGSEDALNFGGGWHAHLAVLEKRIAGISIPDFWALHAVAEREMEIALVSEA | failed
17 | MSMECVVQGIIETQHVEALEILLQGLCGVQRERLRVHELCLRSGPNLGVVSSEVRLLCDLDQPEPTWTVKHVGGAMRGAGADQISVLVRNMIESKVSKNALRMFYALGYKLDHELLKVGFAFHFQRTAHISVSVSSVNKMPKVHAIDEAVPVTPGMQIVDVTAPATSENYSEVAAAVSSFCEFLAPLVHLSKPSISTGVVPTAAAAAASLMSDGGGTTL | failed
18 | MNVLSLGSSSGVVWGRVPITAPAGAATGVTSRADAHSQMRRYAQTGPTAKLSSAPMTTMWGAPLHRRWRGSRLRDPRQAKFLTLASLKWVLANRAYTPWYLVRYWRLLRFKLANPHIITRGMVFLGKGVEIHATPELAQLEIGRWVHIGDKNTIRAHEGSLRFGDKVVLGRDNVINTYLDIEIGDSVLMADWCYICDFDHRMDDITLPIKDQGIIKSPVRIGPDTWIGVKVSVLRGTTIGRGCVLGSHAVVRGAIPDYSIAVGAPAKVVKNRQLSWEASAAQRAELAAALADIERKKAAR | failed
19 | MTASDDAPISTDRFMFGRAQRWLHWSMALLIFAAIGLGIVAAYYPSGQQPRQGLLELHKSIGFTILALLVVRIVLRLISGEPPYRRPLGHLTEMAARAGHLALYGLMLLMPLSGYLFSGAGGYSLPWFGLFQWPRLVPRDHALSEWGQVLHDRGAWVLGAVLALHLAAVCWHQFVKRDEVLSRMTGRASES | failed
20 | LETSWIKPGQASWEWWNDAAPYGPDVNFVSGYNLETYKYYIDFASKYGIRYIIMDEGWAKSTRDPYTPNAKVDVHELIRYAEKKNVGIVLWLTWLTVENNMDLFKTFSEWGVKGVKIDFMDRSDQWMMNFYERVAAEAAKYKLFVDFHGSVSPKGLEYKYPNVLSYEGVRGMEQMGGATPDNSIFMPFMRNAVGAMDYTPGAM | failed
